From patent US20260234220A1 (OSPEDALE SAN RAFFAELE S R L, published 2026)

Assays:
Experiment in all cases: immunofluorescence on infected Vero E6 cells
[1] = biological target: T1, spike protein of SARS-CoV-2 P.1 (Gamma) clinical isolate (hCoV-19/Italy/LOM-UniSR8/2021); GISAID … (SARS-CoV-2, UniProt P0DTC2 14-1273)
T1 construct: whole, on cells

[2] = biological target: T2, spike protein of SARS-CoV-2 B.1.1.7 (Alpha) clinical isolate (19/Italy/LOM-UniSR7/2021); GISAID … (SARS-CoV-2, UniProt P0DTC2 14-1273)
T2 construct: whole, on cells

[3] = biological target: T3, spike protein of SARS-CoV-2 Delta clinical isolate (hCoV-19/Italy/LOM-UniSR12/2021; GISAID EPI_ISL_4198505) (SARS-CoV-2, UniProt P0DTC2 14-1273)
T3 construct: whole, on cells

Measured: binding result

B1: Fab BS.70 (Fab, V domains shown)
VH: LESGGGVVQPGTSLRLSCAASGFTFNNFGMHWVRQAPGKGLEWVAMISYEGSKDFYADSVKGRFTISKDHARNTVYLQMNSLRAEDTAEYYCAKDKAIFMISAGRTLDFWGQGTLVTVSS
VL: ELVMTQSPSSLSASVGDRVTITCRASQNIGIYLNWYQQKPGKAPKLLIYAASSLQNGVPSRFSGSGSGTDFTLTISTLQPEDFATYWCQQGYSTPLTFGGGTKVEIR
binds: all assays above
